In the Human Domainome abundance scans (Beltran et al. 2025):
± gives the uncertainty stated by the source.

B1: POU domain, class 4, transcription factor 1, residues 266 to 347; numbered along this chain, Q01851 (parent)
chain: RELEAFAERFKQRRIKLGVTQADVGSALANLKIPGVGSLSQSTICRFESLTLSHNNMIALKPILQAWLEEAEGAQREKMNKP

Variants of: B1
Experiment: abundance fitness (aPCA) (normalised: wild type 0, dead -1); higher = more abundant; growth selection in yeast, the domain comes from the species named
Conditions: Homo sapiens

Abundance fitness: each site, then its substitutions
W67: C -0.939 ± 0.32, P -0.646 ± 0.11, V -0.412 ± 0.059, D -0.425 ± 0.23, G -0.727 ± 0.071, R -0.639 ± 0.073, E -0.806 ± 0.13, K -0.606 ± 0.17, A -0.406 ± 0.069, F 0.018 ± 0.15, Q -0.712 ± 0.13, Y -0.175 ± 0.18, N -0.65 ± 0.31, L -0.475 ± 0.069, T -0.805 ± 0.18
E69: N -0.022 ± 0.08, I 0.056 ± 0.11, C -0.168 ± 0.07, G -0.207 ± 0.043, W -0.224 ± 0.056, Y -0.171 ± 0.19, K -0.036 ± 0.06, R -0.111 ± 0.038, P -0.612 ± 0.14, L -0.036 ± 0.042, D 0.011 ± 0.088, Q -0.018 ± 0.07, F -0.174 ± 0.12, S -0.054 ± 0.052, A -0.022 ± 0.048, T -0.085 ± 0.07, H -0.076 ± 0.092, V -0.073 ± 0.043
P62: M -0.687 ± 0.1, V -0.485 ± 0.057, C -0.429 ± 0.082, Y -0.562 ± 0.21, Q -0.393 ± 0.092, N -0.286 ± 0.13, K -0.243 ± 0.077, F -0.518 ± 0.11, T -0.192 ± 0.07, I -0.816 ± 0.25, A -0.366 ± 0.053, L -0.524 ± 0.066, S -0.243 ± 0.069, G -0.2 ± 0.039, E -0.413 ± 0.067, R -0.347 ± 0.043, D -0.188 ± 0.077
G73: H -0.068 ± 0.15, N 0.003 ± 0.15, P -0.259 ± 0.22, Q 0.043 ± 0.09, A 0.015 ± 0.05, K -0.046 ± 0.073, S -0.027 ± 0.057, M -0.065 ± 0.06, D -0.105 ± 0.11, L 0.056 ± 0.048, I 0.121 ± 0.17, F -0.056 ± 0.16, V 0.071 ± 0.049, W -0.205 ± 0.067, C -0.013 ± 0.075, T 0.063 ± 0.069, Y 0.144 ± 0.085, R -0.054 ± 0.045, E 0.125 ± 0.054
I63: D -0.41 ± 0.1, E -0.295 ± 0.08, Q -0.247 ± 0.075, M -0.168 ± 0.078, P -0.203 ± 0.081, V 0.002 ± 0.046, R -0.154 ± 0.04, F 0.027 ± 0.15, S -0.204 ± 0.068, G -0.274 ± 0.041, T 0.034 ± 0.08, C -0.028 ± 0.075, L -0.113 ± 0.061, N -0.17 ± 0.11, K -0.137 ± 0.07
E72: H -0.456 ± 0.18, G -0.267 ± 0.046, W -0.415 ± 0.065, C -0.416 ± 0.092, S -0.229 ± 0.06, T -0.244 ± 0.085, R -0.421 ± 0.051, P -0.348 ± 0.09, L -0.431 ± 0.056, I -0.179 ± 0.12, Q -0.21 ± 0.12, M -0.349 ± 0.074, Y -0.138 ± 0.24, N -0.35 ± 0.22, K -0.518 ± 0.11, D -0.259 ± 0.11, V -0.35 ± 0.045
L64: P -0.711 ± 0.24, F -0.337 ± 0.34, S -0.793 ± 0.12, G -0.672 ± 0.065, Q -0.533 ± 0.18, V -0.336 ± 0.059, D -0.652 ± 0.36, T -0.76 ± 0.15, I -0.339 ± 0.26, W -0.948 ± 0.19, E -0.709 ± 0.12, N -0.431 ± 0.21, C -0.499 ± 0.14, Y -0.144 ± 0.19, M -0.323 ± 0.12, A -0.513 ± 0.07
Q65: D 0.01 ± 0.041, Y -0.075 ± 0.059, N -0.078 ± 0.044, W -0.144 ± 0.029, A -0.041 ± 0.028, R -0.162 ± 0.023, K -0.049 ± 0.036, G -0.086 ± 0.024, P -0.98 ± 0.079, I -0.105 ± 0.045, F -0.112 ± 0.041, H -0.047 ± 0.05, C -0.14 ± 0.041, L -0.073 ± 0.026, M -0.056 ± 0.032, E 0.061 ± 0.031, T -0.06 ± 0.029
E70: C -0.125 ± 0.037, H -0.077 ± 0.046, D -0.018 ± 0.037, F -0.198 ± 0.044, T -0.026 ± 0.035, Y -0.145 ± 0.046, S -0.006 ± 0.03, G -0.061 ± 0.023, P -0.657 ± 0.052, K 0.004 ± 0.035, W -0.311 ± 0.032, A -0.07 ± 0.027, V -0.176 ± 0.026, M -0.1 ± 0.032, R -0.046 ± 0.022, I -0.161 ± 0.053, L -0.18 ± 0.029, Q -0.015 ± 0.034
A66: P -0.619 ± 0.058, R -0.022 ± 0.023, L -0.125 ± 0.029, E 0.012 ± 0.029, N -0.017 ± 0.05, K 0.044 ± 0.035, I -0.141 ± 0.05, S -0.005 ± 0.031, D 0.013 ± 0.037, C -0.049 ± 0.039, Y -0.104 ± 0.048, T -0.012 ± 0.033, G -0.029 ± 0.022, H 0.001 ± 0.059, Q -0.046 ± 0.035, V -0.12 ± 0.026, M -0.041 ± 0.039, F -0.113 ± 0.048, W -0.192 ± 0.031
K61: T -0.132 ± 0.053, C -0.012 ± 0.057, M -0.1 ± 0.062, L -0.198 ± 0.046, Y 0.007 ± 0.074, R -0.051 ± 0.04, S -0.149 ± 0.047, G -0.305 ± 0.037, V -0.105 ± 0.046, P -1.19 ± 0.36, D -0.635 ± 0.15, E -0.022 ± 0.056, W -0.07 ± 0.052, N -0.388 ± 0.08, I 0.165 ± 0.25, Q 0.018 ± 0.074, H -0.265 ± 0.18, A -0.074 ± 0.043, F -0.349 ± 0.11
L60: T -0.452 ± 0.31, W -0.605 ± 0.2, V -0.029 ± 0.087, H -0.392 ± 0.29, N -0.223 ± 0.26, S -0.253 ± 0.23, I -0.303 ± 0.23
Q75: E -0.01 ± 0.048, T -0.033 ± 0.048, N -0.061 ± 0.11, H 0.041 ± 0.097, F -0.043 ± 0.081, P -0.063 ± 0.065, Y -0.085 ± 0.074, M -0.025 ± 0.06, R -0.028 ± 0.032, L -0.001 ± 0.04, V -0.025 ± 0.041, D -0.045 ± 0.072, A 0 ± 0.04, I -0.051 ± 0.088, W -0.077 ± 0.045, C -0.015 ± 0.051
L68: Q -0.568 ± 0.095, V -0.074 ± 0.051, E -0.672 ± 0.17, H -0.329 ± 0.22, M -0.112 ± 0.069, W -0.626 ± 0.1, R -0.774 ± 0.12, C -0.29 ± 0.08, T -0.459 ± 0.12, S -0.497 ± 0.08, P -0.715 ± 0.18, I 0.037 ± 0.21, G -0.821 ± 0.11, Y -0.304 ± 0.17
R76: F -0.032 ± 0.034, A 0.03 ± 0.025, K -0.006 ± 0.039, I -0.029 ± 0.04, Y -0.124 ± 0.05, E 0.016 ± 0.028, M 0.044 ± 0.032, L 0.012 ± 0.023, G 0.007 ± 0.02, H -0.003 ± 0.053, W -0.056 ± 0.026, Q -0.003 ± 0.035, T 0.008 ± 0.034, C 0.012 ± 0.033, D -0.015 ± 0.039, V -0.009 ± 0.023, N 0.026 ± 0.063, P -0.002 ± 0.034
N80: H 0.019 ± 0.066, E 0.078 ± 0.053, C 0.064 ± 0.06, G -0.003 ± 0.032, D -0.007 ± 0.062, A 0.117 ± 0.039, F -0.043 ± 0.065
A71: W -0.186 ± 0.054, R -0.051 ± 0.04, T 0.062 ± 0.086, H -0.146 ± 0.12, N 0.044 ± 0.1, I -0.18 ± 0.19, P -0.588 ± 0.15, G -0.379 ± 0.044, Y -0.353 ± 0.17, S -0.079 ± 0.067, D -0.572 ± 0.11, Q -0.051 ± 0.074, E -0.062 ± 0.054, K 0.072 ± 0.073, M -0.005 ± 0.11, F -0.289 ± 0.13
A74: E 0.025 ± 0.029, H -0.009 ± 0.042, G -0.044 ± 0.023, C 0.012 ± 0.034, T -0.013 ± 0.033, R -0.008 ± 0.024, F -0.035 ± 0.036, V -0.005 ± 0.025, D -0.027 ± 0.039, Q -0.029 ± 0.034, P -0.05 ± 0.034, Y 0.002 ± 0.046, M -0.016 ± 0.032, L 0.006 ± 0.026, K -0.009 ± 0.034, W -0.137 ± 0.029, N -0.019 ± 0.043, S 0.005 ± 0.029
K78: S -0.092 ± 0.059, Q -0.045 ± 0.12, W 0.007 ± 0.063, I -0.026 ± 0.09, Y -0.106 ± 0.23, T -0.273 ± 0.1, R 0.047 ± 0.051, V -0.019 ± 0.057, M 0.072 ± 0.09, A 0.089 ± 0.064, E 0.035 ± 0.06, F 0.003 ± 0.23, P -0.048 ± 0.12, L -0.012 ± 0.069, G -0.036 ± 0.045, D -0.153 ± 0.14
M79: L 0.001 ± 0.024, I 0.008 ± 0.042, Q -0.03 ± 0.033, S -0.024 ± 0.026, K 0.039 ± 0.035, P 0.029 ± 0.033, W -0.015 ± 0.026, D -0.022 ± 0.041, A 0.004 ± 0.027, V 0.007 ± 0.024, R -0.025 ± 0.021, G 0.009 ± 0.021, Y -0.011 ± 0.052, T -0.021 ± 0.032, F 0.024 ± 0.04, N 0.023 ± 0.043
E77: F -0.16 ± 0.063, D 0.006 ± 0.051, H -0.092 ± 0.062, S -0.024 ± 0.032, M 0.021 ± 0.042, Q -0.02 ± 0.049, Y -0.009 ± 0.068, P -0.08 ± 0.048, V -0.005 ± 0.029, L -0.053 ± 0.031, T -0.064 ± 0.04, I -0.063 ± 0.065, A -0.044 ± 0.03, G -0.025 ± 0.023, C -0.088 ± 0.041, W -0.145 ± 0.035
